B1: Proto-oncogene serine/threonine-protein kinase mos (Homo sapiens), P00540 (parent)
chain: MPSPLALRPYLRSEFSPSVDARPCSSPSELPAKLLLGATLPRAPRLPRRLAWCSIDWEQVCLLQRLGAGGFGSVYKATYRGVPVAIKQVNKCTKNRLASRRSFWAELNVARLRHDNIVRVVAASTRTPAGSNSLGTIIMEFGGNVTLHQVIYGAAGHPEGDAGEPHCRTGGQLSLGKCLKYSLDVVNGLLFLHSQSIVHLDLKPANILISEQDVCKISDFGCSEKLEDLLCFQTPSYPLGGTYTHRAPELLKGEGVTPKADIYSFAITLWQMTTKQAPYSGERQHILYAVVAYDLRPSLSAAVFEDSLPGQRLGDVIQRCWRPSAAQRPSARLLLVDLTSLKAELG
partner: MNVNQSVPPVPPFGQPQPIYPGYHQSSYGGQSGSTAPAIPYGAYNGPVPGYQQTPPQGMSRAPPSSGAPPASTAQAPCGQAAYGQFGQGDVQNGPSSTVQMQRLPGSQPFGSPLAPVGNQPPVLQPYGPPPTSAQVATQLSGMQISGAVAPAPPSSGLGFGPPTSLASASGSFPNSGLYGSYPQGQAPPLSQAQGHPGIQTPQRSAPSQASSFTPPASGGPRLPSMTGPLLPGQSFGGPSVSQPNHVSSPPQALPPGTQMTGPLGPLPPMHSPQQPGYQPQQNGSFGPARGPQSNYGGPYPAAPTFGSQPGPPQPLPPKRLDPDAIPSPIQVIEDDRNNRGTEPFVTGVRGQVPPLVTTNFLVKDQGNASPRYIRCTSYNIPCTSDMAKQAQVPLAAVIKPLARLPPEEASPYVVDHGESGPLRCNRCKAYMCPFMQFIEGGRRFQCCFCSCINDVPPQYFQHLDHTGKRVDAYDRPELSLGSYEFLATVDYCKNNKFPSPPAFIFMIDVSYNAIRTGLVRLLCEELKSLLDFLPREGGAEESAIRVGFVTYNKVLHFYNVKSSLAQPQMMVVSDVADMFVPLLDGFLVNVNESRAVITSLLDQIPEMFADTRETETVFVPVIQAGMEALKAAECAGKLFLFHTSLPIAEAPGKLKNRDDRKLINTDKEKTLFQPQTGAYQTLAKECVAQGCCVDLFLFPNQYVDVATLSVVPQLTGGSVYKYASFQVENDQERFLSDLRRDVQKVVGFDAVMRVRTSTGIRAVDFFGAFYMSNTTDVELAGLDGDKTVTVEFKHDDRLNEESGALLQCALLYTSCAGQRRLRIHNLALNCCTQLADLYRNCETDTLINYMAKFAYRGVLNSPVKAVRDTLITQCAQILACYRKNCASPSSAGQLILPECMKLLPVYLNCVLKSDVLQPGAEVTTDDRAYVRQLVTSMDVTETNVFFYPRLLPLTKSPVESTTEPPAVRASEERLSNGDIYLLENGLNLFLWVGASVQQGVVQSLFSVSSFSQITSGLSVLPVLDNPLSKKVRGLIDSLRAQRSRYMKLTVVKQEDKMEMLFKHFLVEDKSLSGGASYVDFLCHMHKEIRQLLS
B2: Transmembrane protein 79 (Homo sapiens), Q9BSE2 (parent)
chain: MTEQETLALLEVKRSDSPEKSSPQALVPNGRQPEGEGGAESPGAESLRVGSSAGSPTAIEGAEDGLDSTVSEAATLPWGTGPQPSAPFPDPPGWRDIEPEPPESEPLTKLEELPEDDANLLPEKAARAFVPIDLQCIERQPQEDLIVRCEAGEGECRTFMPPRVTHPDPTERKWAEAVVRPPGCSCGGCGSCGDREWLRAVASVGAALILFPCLLYGAYAFLPFDVPRLPTMSSRLIYTLRCGVFATFPIVLGILVYGLSLLCFSALRPFGEPRREVEIHRRYVAQSVQLFILYFFNLAVLSTYLPQDTLKLLPLLTGLFAVSRLIYWLTFAVGRSFRGFGYGLTFLPLLSMLMWNLYYMFVVEPERMLTATESRLDYPDHARSASDYRPRPWG
B3: Protein SPMIP9 (Homo sapiens), Q96LM6 (parent)
chain: MAGVKYPGQDPVDLDIYQSSHMVDYQPYRKHKYSRVTPQEQAKLDAQLRDKEFYRPIPNPNPKLTDGYPAFKRPHMTAKDLGLPGFFPSQEHEATREDERKFTSTCHFTYPASHDLHLAQGDPNQVLQSADFPCLVDPKHQPAAEMAKGYLLLPGCPCLHCHIVKVPILNRWGPLMPFYQ
partner: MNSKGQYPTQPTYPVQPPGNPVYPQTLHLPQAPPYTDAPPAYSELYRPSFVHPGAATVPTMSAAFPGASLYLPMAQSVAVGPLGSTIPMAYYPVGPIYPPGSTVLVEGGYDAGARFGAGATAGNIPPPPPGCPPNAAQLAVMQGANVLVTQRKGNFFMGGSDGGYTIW
B4: Charged multivesicular body protein 7 (Homo sapiens), Q8WUX9 (parent)
chain: MWSPEREAEAPAGGDPAGLLPPEWEEDEERMSFLFSAFKRSREVNSTDWDSKMGFWAPLVLSHSRRQGVVRLRLRDLQEAFQRKGSVPLGLATVLQDLLRRGELQRESDFMASVDSSWISWGVGVFLLKPLKWTLSNMLGDNKVPAEEVLVAVELLKEKAEEVYRLYQNSPLSSHPVVALSELSTLCANSCPDERTFYLVLLQLQKEKRVTVLEQNGEKIVKFARGPRAKVSPVNDVDVGVYQLMQSEQLLSRKVESLSQEAERCKEEARRACRAGKKQLALRSLKAKQRTEKRIEALHAKLDTVQGILDRIYASQTDQMVFNAYQAGVGALKLSMKDVTVEKAESLVDQIQELCDTQDEVSQTLAGGVTNGLDFDSEELEKELDILLQDTTKEPLDLPDNPRNRHFTNSVPNPRISDAELEAELEKLSLSEGGLVPSSKSPKRQLEPTLKPL
partner: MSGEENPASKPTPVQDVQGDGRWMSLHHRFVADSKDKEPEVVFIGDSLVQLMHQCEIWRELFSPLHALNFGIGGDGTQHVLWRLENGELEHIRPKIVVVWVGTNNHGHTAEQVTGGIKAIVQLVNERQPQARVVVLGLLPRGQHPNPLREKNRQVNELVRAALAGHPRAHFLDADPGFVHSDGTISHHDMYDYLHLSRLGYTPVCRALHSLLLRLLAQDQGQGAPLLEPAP
B5: Filamin-binding LIM protein 1 (Homo sapiens), Q8WUP2 (parent)
chain: MASKPEKRVASSVFITLAPPRRDVAVAEEVRQAVCEARRGRPWEAPAPMKTPEAGLAGRPSPWTTPGRAAATVPAAPMQLFNGGCPPPPPVLDGEDVLPDLDLLPPPPPPPPVLLPSEEEAPAPMGASLIADLEQLHLSPPPPPPQAPAEGPSVQPGPLRPMEEELPPPPAEPVEKGASTDICAFCHKTVSPRELAVEAMKRQYHAQCFTCRTCRRQLAGQSFYQKDGRPLCEPCYQDTLERCGKCGEVVRDHIIRALGQAFHPSCFTCVTCARCIGDESFALGSQNEVYCLDDFYRKFAPVCSICENPIIPRDGKDAFKIECMGRNFHENCYRCEDCRILLSVEPTDQGCYPLNNHLFCKPCHVKRSAAGCC
partner: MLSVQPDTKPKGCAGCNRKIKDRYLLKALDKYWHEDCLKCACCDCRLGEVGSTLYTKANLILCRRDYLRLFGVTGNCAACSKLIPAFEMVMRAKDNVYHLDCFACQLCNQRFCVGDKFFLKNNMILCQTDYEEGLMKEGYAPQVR

Variants of: B1
Conditions: with sc24c_human SEC24C

| Variant | effect of a mutation on the interaction |
| --- | --- |
| MPSPLALRPYLRSEFSPSVDARPCSSPSELPAKLLLGATLPRAPRLPRRLAWCSIDWEQVCLLQRLGAGGFGSVYKATYRGVPVAIKQVNKCTKNRLASRRSFWAELNVARLRHDNIVRVVATSTRTPAGSNSLGTIIMEFGGNVTLHQVIYGAAGHPEGDAGEPHCRTGGQLSLGKCLKYSLDVVNGLLFLHSQSIVHLDLKPANILISEQDVCKISDFGCSEKLEDLLCFQTPSYPLGGTYTHRAPELLKGEGVTPKADIYSFAITLWQMTTKQAPYSGERQHILYAVVAYDLRPSLSAAVFEDSLPGQRLGDVIQRCWRPSAAQRPSARLLLVDLTSLKAELG [A123T] | disrupting interaction strength |
| MPSPLALRPYLRSEFSPSVDARPCSSPSELPAKLLLGATLPRAPRLPRRLAWCSIDWEQVCLLQRLGAGGFGSVYKATYRGVPVAIKQVNKCTKNRLASRRSFWSELNVARLRHDNIVRVVAASTRTPAGSNSLGTIIMEFGGNVTLHQVIYGAAGHPEGDAGEPHCRTGGQLSLGKCLKYSLDVVNGLLFLHSQSIVHLDLKPANILISEQDVCKISDFGCSEKLEDLLCFQTPSYPLGGTYTHRAPELLKGEGVTPKADIYSFAITLWQMTTKQAPYSGERQHILYAVVAYDLRPSLSAAVFEDSLPGQRLGDVIQRCWRPSAAQRPSARLLLVDLTSLKAELG [A105S] | with no effect |

Variants of: B2
Conditions: with tnmd_human TNMD

| Variant | effect of a mutation on the interaction |
| --- | --- |
| MTEQETLALLEVKRSDSPEKSSPQALVPNGRQPEGEGGAESPGAESLRVGSSAGSPTAIEGAEDGLDSTVSEAATLPWGTGPQPSAPFPDPPGWRDIEPEPPESEPLTKLEELPEDDANLLPEKAARAFVPIDLQCIERQPQEDLIVRCEAGEGECRTFMPPRVTHPDPTERKWAEAVVRPPGCSCGGCGSCGDREWLRAVASVGAALILFPCLLYGAYAFLPFDVPRLPTMSSRLIYTLRCGVFATFPIVLGILVYGLSLLCFSALRPFGEPRREVEIHRRYVAQSVQLFILYFFNLAVLSTYLPQDTLKLLPLLTGLFAISRLIYWLTFAVGRSFRGFGYGLTFLPLLSMLMWNLYYMFVVEPERMLTATESRLDYPDHARSASDYRPRPWG [V322I] | with no effect |

Variants of: B3
Conditions: with dazp2_human DAZAP2, Q15038

| Variant | effect of a mutation on the interaction |
| --- | --- |
| P177S | with no effect |
| Y68H | with no effect |
| I16V | with no effect |

Variants of: B4
Conditions: with pa1b3_human PAFAH1B3, Q15102

| Variant | effect of a mutation on the interaction |
| --- | --- |
| MWSPEREAEAPAGGDPAGLLPPEWEEDEERMSFLFSAFKRSREVNSTDWDSKMGFWAPLVLSHSRRQGVVRLRLRDLQEAFQRKGSVPLGLATVLQDLLRRGELQRESDFMASVDSSWISWGVGVFLLKPLKWTLSNMLGDNKVPAEEVLVAVELLKEKAEEVYRLYQNSPLSSHPVVALSELSTLCANSCPDERTFYLVLLQLQKEKRVTVLEQNGEKIVKFARGPCAKVSPVNDVDVGVYQLMQSEQLLSRKVESLSQEAERCKEEARRACRAGKKQLALRSLKAKQRTEKRIEALHAKLDTVQGILDRIYASQTDQMVFNAYQAGVGALKLSMKDVTVEKAESLVDQIQELCDTQDEVSQTLAGGVTNGLDFDSEELEKELDILLQDTTKEPLDLPDNPRNRHFTNSVPNPRISDAELEAELEKLSLSEGGLVPSSKSPKRQLEPTLKPL [R228C] | with no effect |

Variants of: B5
Conditions: with lmo3_human LMO3, Q8TAP4

| Variant | effect of a mutation on the interaction |
| --- | --- |
| MASKPEKRVASSVFITLAPPRRDVAVAEEVRQAVCEARRGRPWEAPAPMKTPEAGLAGRPSPWTTPGRAAATVPAAPMQLFNGGCPPPPPVLDGEDVLPDLDLLPPPPPPPPVLLPSEEEAPAPMGASLIADLEQLHLSPPPPPPQAPAEGPSVQPGPLRPMEEELPPPPAEPIEKGASTDICAFCHKTVSPRELAVEAMKRQYHAQCFTCRTCRRQLAGQSFYQKDGRPLCEPCYQDTLERCGKCGEVVRDHIIRALGQAFHPSCFTCVTCARCIGDESFALGSQNEVYCLDDFYRKFAPVCSICENPIIPRDGKDAFKIECMGRNFHENCYRCEDCRILLSVEPTDQGCYPLNNHLFCKPCHVKRSAAGCC [V174I] | with no effect |
| MASKPEKRVASSVFITLAPPRRDVAVAEEVRQAVCEARRGRPWEAPAPMKTPEAGLAGRPSPWTTPGRAAATVPAAPMQLFNGGCPPPPPVLDGEDVLPDLDLLPPPPPPPPVLLPSEEEAPAPMGASLIADLEQLHLSPPPPPPQAPAEGPSVQPGPLRPMEEELPPPPAEPVEKGASTDICAFCHKTVSPRELAVEAMKRQYHAQCFTCRTCRRQLAGQSFYQKDGRPLCKPCYQDTLERCGKCGEVVRDHIIRALGQAFHPSCFTCVTCARCIGDESFALGSQNEVYCLDDFYRKFAPVCSICENPIIPRDGKDAFKIECMGRNFHENCYRCEDCRILLSVEPTDQGCYPLNNHLFCKPCHVKRSAAGCC [E233K] | with no effect |
